Source: article PMC5512576

Target: BF520 Env 637K (HIV-1)

PGT151 (antibody)
maximum percent neutralization, TZM-bl pseudovirus neutralization by PGT151: 59%
